In the assay the target is postsynaptic density 95 (PSD95), wild type (mouse (endogenous in hippocampus and spinal cord)) (UniProt Q62108). Put plainly: co-IP.
Chain of postsynaptic density 95 (PSD95), wild type (mouse (endogenous in hippocampus and spinal cord)) (Q62108 whole entry): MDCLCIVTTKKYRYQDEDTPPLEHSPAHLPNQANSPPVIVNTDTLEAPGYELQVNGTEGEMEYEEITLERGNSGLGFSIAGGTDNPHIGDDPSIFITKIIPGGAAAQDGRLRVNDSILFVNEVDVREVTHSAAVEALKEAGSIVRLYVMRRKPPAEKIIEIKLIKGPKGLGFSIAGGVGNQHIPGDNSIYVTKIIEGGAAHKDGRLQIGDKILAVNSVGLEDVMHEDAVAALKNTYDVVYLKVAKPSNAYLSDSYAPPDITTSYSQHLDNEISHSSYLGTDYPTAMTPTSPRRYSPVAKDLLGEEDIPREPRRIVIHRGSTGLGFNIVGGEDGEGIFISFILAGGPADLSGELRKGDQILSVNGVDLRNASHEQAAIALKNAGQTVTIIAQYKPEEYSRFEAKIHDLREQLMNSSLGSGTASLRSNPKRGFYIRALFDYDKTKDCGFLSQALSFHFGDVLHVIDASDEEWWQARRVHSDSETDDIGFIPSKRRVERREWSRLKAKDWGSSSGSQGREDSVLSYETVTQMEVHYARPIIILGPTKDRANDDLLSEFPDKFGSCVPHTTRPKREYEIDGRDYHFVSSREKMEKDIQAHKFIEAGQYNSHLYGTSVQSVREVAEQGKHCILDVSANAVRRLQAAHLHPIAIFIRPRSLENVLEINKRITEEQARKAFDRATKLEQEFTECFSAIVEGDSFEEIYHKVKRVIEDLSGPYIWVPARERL

Consider “phosphatidylinositol-3-kinase-C2α (PI(3)K-C2α) (from UniProt Q61194 1-1686) (enzyme)”, for which the PI(3)K-C2α/PSD95 ratio (densitometry), ipsilateral to formalin was 0.053 and the PI(3)K-C2α/PSD95 ratio (densitometry), naive came to 0.019.

These data come from paper PMC2892321.
